Experimental data taken from article PMC6112790, “MicroED structure of the NaK ion channel reveals a Na^+ partition process into the selectivity filter” (Communications Biology, 2018).

Molecular target: the molecule itself
Test: crystal structure; MicroED (electron diffraction, continuous rotation) of nano-crystals grown in Na+ buffers with MPD, protein in DM detergent; 11 crystals merged; 2.5 Å; space group I4; tetramer on the four-fold axis

B1: NaK–∆19 (NaK ion channel from Bacillus cereus with the first 19 residues truncated) (domain or fragment)
chain: KDKEFQVLFVLTILTLISGTIFYSTVEGLRPIDALYFSVVTLTTVGDGNFSPQTDFGKIFTILYIFIGIGLVFGFIHKLAVNVQLPSILSNRKKE
notes: NaK channel, Bacillus cereus, wild type with the first 19 residues truncated (about 10-kDa monomer); also called molA; molB
**Q.** B1 was tested. Which “stoichiometry N” value did it give?
**A.** 4
